For the assay, the target named is T1, VEGF (R&D systems, Minneapolis, Minn.) (UniProt P15692-4 27-191, limits assumed).
T1 construct: Soluble analyte in the BIAcore assay; also called vascular endothelial growth factor; VEGFA
Nature of the assay: SPR (BIAcore 2000/3000), antibody captured on anti-human Fc, VEGF as analyte, 1:1 Langmuir fit; variant corresponding to SEQ ID NO:82, the tightest of the variants. On the procedure:
RL was kept low to minimize avidity due to the dimeric nature of VEGF. No capture of the antibody was made on the reference surface to serve as a negative control. Subsequently, VEGF was injected to all flow cells at a flow rate of 50 μL/min for two minutes to monitor association followed by a 25-minute flow of HBS-P running buffer (10 mM HEPES, 150 mM sodium chloride, 0.005% P-20, pH 7.4) to monitor the dissociation phase. At each cycle, VEGF, in 6 different concentrations of VEGF ranging between 0 nM and 512 nM and at four-fold increments, was injected over the surface. […] Binding data were fit to the 1:1 Langmuir model to extract binding constants from the BIAevaluate software. Double referencing was applied in each analysis to eliminate background responses from the reference surface and buffer only control. All the binding kinetics data were analyzed at least three separate determinations.
On the technique in general: Surface plasmon resonance follows binding to a sensor surface in real time, without labels.

T1 sequence (P15692 other isoform, or with tags, fused parts or gaps limits assumed): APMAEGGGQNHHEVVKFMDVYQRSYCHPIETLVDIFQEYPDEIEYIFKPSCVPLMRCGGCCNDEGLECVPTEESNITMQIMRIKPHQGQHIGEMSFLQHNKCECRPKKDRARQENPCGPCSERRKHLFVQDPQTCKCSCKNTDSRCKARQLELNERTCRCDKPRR

B1: bevacizumab variant corresponding to SEQ ID NO:82 (antibody, V domains shown)
VH: EVQLVESGGGLVQPGGSLRLSCAASGYTFTFYGMNWVRQAPGKGLEWVGWINTYTGEPTYAADFKRRFTFSLDTSKSTAYLQMNSLRAEDTAVYYCAKYPDYDGGSHWYFDVWGQGTLVTVSS
VL: DIQMTQSPSSLSASVGDRVTITCSASQDISNYLNWYQQKPGKAPKVLIYFTSSLHSGVPSRFSGSGSGTDFTLTISSLQPEDFATYYCQQYSTVPWTFGQGTKVEIKR
notes: Variant VH cloned with the unmodified VL into a human IgG1-containing plasmid and expressed in 293T/17 cells
B1: the Kd – broadly, a measure of binding affinity in units of concentration – is 80 pM.

Values taken from patent US20100322931A1 (AbbVie / Abbott, published 2010).
